From patent publication US10561709B2, “Methods and compositions of neuregulins for preventing, treating or delaying preserved ejection fraction cardiac failure” (Zensun (Shanghai) Science & Technology, Co., Ltd., priority 2014, dated 2020)

How the values were obtained:
[1] = tested on: SHR hypertensive rats with heart failure; test: Hemodynamic measurement in hypertensive heart failure rats; type: in vivo, rat; settings: captopril 10 mg/kg intragastric 2 times a day; for MAP / −dp/dt: hypertensive heart failure rats, after 3 treatment cycles, rhNRG 6.5 ug/kg i.v. once a day 5 days on/2 days off
Method: (§1) The study is on the therapeutic effect of recombinant human neuregulin (rhNRG) in SHR hypertensive rats with heart failure. Methods: SHR hypertensive rat strains, normal feeding, monitoring changes of cardiac function during feeding. […] Hypertensive heart failure rats were randomly divided into negative control group, NRG treatment group and captopril treatment group. rhNRG was administered continuously for 5 days, withdrawing for 2 days in a treatment cycle, NRG group received 3 treatment cycles. At the end of the second and third treatment cycle, each group of rats was examined by echocardiography to determine the cardiac function changes. After the third treatment cycle, hemodynamics of the rats were detected.
(§2) The SHR hypertensive rat strains, normal feeding, and monitoring the cardiac function changes during the feeding.
After the model was successfully established, the rats were randomly divided into negative control group, NRG treatment group and captopril treatment group. RhNRG was administered intravenously, with a dose of 6.5 ug/kg, once a day, 5 days of continuous administration and 2 days of drug withdraw period as a treatment cycle. A total of 3 treatment cycles were administered. At the same time, the NRG group was given drinking water by intragastric administration two times a day. Captopril was administrated 10 mg/kg by intragastric administration, 2 times a day, continuous administration. NRG excipient was administrated by tail vein injection for 3 treatment cycles. The negative control group were given drinking water by intragastric administration and given NRG excipients by tail vein injection.
At the end of the third treatment cycle, the rats were anesthetized with 3% pentobarbital by intraperitoneal injection. Median incision was made in the neck, the left common carotid artery was isolated and intubated, and the arterial and left ventricular hemodynamic parameters were measured.

[2] = tested on: patients with heart failure with preserved ejection fraction; test: Mitral valve flow spectrum of two-dimensional echocardiography, preliminary clinical trial; type: in vivo, human
Method: To evaluate the effect of recombinant human neuregulin on cardiac function of patients with heart failure with preserved ejection fraction, the preliminary clinical trial was carried out in the Sixth People's Hospital Affiliated to Shanghai Jiao Tong University, which comprises 2 patients in the placebo group and 2 patients in the experiment group.
1.1 left ventricular ejection fraction (LVEF) ≥50% (two-dimensional echocardiography diagnosis);
1.2 New York heart function (NYHA) II or III level;
4. Data collection: Mitral valve flow spectrum of two-dimensional echocardiography was detected during the screening period, 11-13 d and 30 d.

[3] = tested on: SHR hypertensive rats with heart failure; test: Echocardiography examination in hypertensive heart failure rats; type: in vivo, rat; settings: rhNRG 6.5 ug/kg, after 2 cycles or 3 cycles of treatment
Method: as §1, §2
After the model was successfully established, the rats were randomly divided into negative control group, NRG treatment group and captopril treatment group. RhNRG was administered intravenously, with a dose of 6.5 ug/kg, once a day, 5 days of continuous administration and 2 days of drug withdraw period as a treatment cycle. A total of 3 treatment cycles were administered. At the same time, the NRG group was given drinking water by intragastric administration two times a day. […]

[4] = patient 8003, 0.3 ug/kg/day i.v. drip 10 hours a day for 10 days, 11-13 d
[5] = patient 8003, 0.3 ug/kg/day i.v. drip 10 hours a day for 10 days, 30 d
[6] = patient 8003, 0.3 ug/kg/day i.v. drip 10 hours a day for 10 days, screening period (before treatment)
[7] = patient 8004, 0.3 ug/kg/day i.v. drip 10 hours a day for 10 days, 11-13 d
[8] = patient 8004, 0.3 ug/kg/day i.v. drip 10 hours a day for 10 days, 30 d
[9] = patient 8004, 0.3 ug/kg/day i.v. drip 10 hours a day for 10 days, screening period (before treatment)

For `C[C@H](CS)C(=O)N1CCC[C@H]1C(=O)O` [captopril, reference compound], the MAP [1] was 139.9 ± 24.8, the “−dp/dt” value [1] was −5441.2 ± 1007.3 and the blood pressure ([1]; hypertensive rats, vs 216.5±23.2 and 228.0±26.0 in the other groups (p=0.029, p=0.017)) was 174.5±33.0.

B1: NRG: Recombinant human neuregulin, Neucardin™, 61 amino acids, produced by Shanghai Zensun Sci & Tech Co., Ltd. (protein)
chain: SHLVKCAEKEKTFCVNGGECFMVKDLSNPSRYLCKCPNEFTGDRCQNYVMASFYKAEELYQ
modifications: homo sapiens
B1 gave a DT [2, 4] of 203.7 ms, an IVRT [2, 4] of 340.1 ms and a DT [2, 5] of 179.5 ms. For the same molecule, the IVRT [2, 5] was 345 ms, the DT [2, 6] was 229.08 ms and the IVRT [2, 6] was 374.31 ms. It also gave a DT [2, 7] of 256.15 ms, an IVRT [2, 7] of 609.28 ms and a DT [2, 8] of 255.14 ms. The IVRT [2, 8] was 499.08 ms, the DT [2, 9] was 262.28 ms and the IVRT [2, 9] was 621.07 ms. The “IVRT and DT values, change over the trial” value ([2]; patients administered with NRG 0.3 ug/kg/day, versus placebo patients whose values gradually increased) was “significantly decreased”, the “left ventricular end diastolic and end systolic volume” value [3] was “prevent further left ventricular end diastolic and end systolic volume enlargement” and the MAP [1] was 182.5 ± 18.8. For the same molecule, the “−dp/dt” value [1] was −7467.6±715.8.
